Assay [1] addresses human CD123 on cells (human) (UniProt P26951). The assay is described as follows: cell-based or functional assay.
In assay [2] the target is Macaca fascicularis CD3ε/δ-Fc fusion heterodimer (Macaca fascicularis) (UniProt Q95LI8). As to the kind of experiment: SPR Biacore, CODV-Fab.
In assay [3] the target is human CD3ε/δ-Fc fusion heterodimer (hCD3ε/δ-hFc) (human) (UniProt P04234). The assay is described as follows: SPR Biacore, CODV-Fab. (Surface plasmon resonance follows binding to a sensor surface in real time, without labels.)
human CD3ε/δ-Fc fusion heterodimer (hCD3ε/δ-hFc) (human), sequence (chain, as listed by the source mutant, chain 1 of 2): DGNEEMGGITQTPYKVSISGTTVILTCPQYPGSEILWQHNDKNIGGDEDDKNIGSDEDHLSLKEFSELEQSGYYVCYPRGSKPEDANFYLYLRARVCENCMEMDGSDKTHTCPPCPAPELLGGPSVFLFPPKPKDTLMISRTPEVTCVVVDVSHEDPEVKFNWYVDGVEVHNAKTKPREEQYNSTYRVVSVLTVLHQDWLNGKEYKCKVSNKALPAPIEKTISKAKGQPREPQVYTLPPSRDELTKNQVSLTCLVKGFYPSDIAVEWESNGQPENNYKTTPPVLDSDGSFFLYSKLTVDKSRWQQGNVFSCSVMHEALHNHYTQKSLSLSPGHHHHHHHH
human CD3ε/δ-Fc fusion heterodimer (hCD3ε/δ-hFc) (human), sequence (P04234 22-105, stated change not applied, chain 2 of 2): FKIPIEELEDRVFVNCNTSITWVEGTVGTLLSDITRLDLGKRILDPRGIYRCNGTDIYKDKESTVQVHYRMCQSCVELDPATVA
Assay [4] concerns the target Macaca fascicularis CD3 (TCR complex) on cyno HSC-F cells (Macaca fascicularis) (UniProt Q95LI5). The assay is described as follows: flow cytometry, cyno HSC-F (control row of Table 2; same value as in Table 1). (In general: A flow cytometer gives signals particle by particle.)
Assay [5] concerns the target human CD3 (CD3ε of the TCR complex) on human T cells (human) (UniProt P07766). As to the kind of experiment: flow cytometry, Jurkat E6-1 (w/o primary ab: 7).
Assay [6] shares this target. The assay is described as follows: flow cytometry, Jurkat E6-1 (w/o primary ab: 7; control row of Table 2; same value as in Table 1).
In assay [7] the target is Macaca fascicularis CD3 (TCR complex) on cyno HSC-F cells (Macaca fascicularis) (UniProt Q95LI5). The assay is described as follows: flow cytometry, cyno HSC-F.
Macaca fascicularis CD3 (TCR complex) on cyno HSC-F cells (Macaca fascicularis), sequence (Q95LI5 22-198 limits assumed, one chain of several): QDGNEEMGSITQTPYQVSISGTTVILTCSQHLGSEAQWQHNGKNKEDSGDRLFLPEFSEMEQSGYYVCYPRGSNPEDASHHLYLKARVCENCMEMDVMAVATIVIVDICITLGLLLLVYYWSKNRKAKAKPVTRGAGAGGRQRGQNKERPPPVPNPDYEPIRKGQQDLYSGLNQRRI
Assay [8] addresses Macaca fascicularis CD3ε/δ-Fc fusion heterodimer (Macaca fascicularis) (UniProt Q95LI8). As to the kind of experiment: SPR Biacore, Fab-fragment.
The target in assay [9] is human CD3ε/δ-Fc fusion heterodimer (hCD3ε/δ-hFc) (human) (UniProt P04234). The assay is described as follows: SPR Biacore, Fab-fragment.
Assay [10] concerns the target recombinant huCD3ε/γ, Fc-tagged (PB01225) (human) (UniProt P07766). As to the kind of experiment: SPR, Fc-captured CD3, 100 nM.
For assay [11], the target named is Macaca fascicularis CD3ε/δ-Fc fusion heterodimer (Macaca fascicularis) (UniProt Q95LI8). The assay is described as follows: SPR, SP-34 used as IgG.
In assay [12] the target is human CD3ε/δ-Fc fusion heterodimer (hCD3ε/δ-hFc) (human) (UniProt P04234). The assay is described as follows: SPR, SP-34 used as IgG.
In assay [13] the target is Macaca fascicularis CD3ε/δ-Fc fusion heterodimer (Macaca fascicularis) (UniProt Q95LI8). The assay is described as follows: SPR, cyno against human CD3ε/δ.

The source of these data is patent publication US20180222987A1.

Macaca fascicularis CD3ε/δ-Fc fusion heterodimer (Macaca fascicularis), sequence (chain, as listed by the source mutant, chain 1 of 2): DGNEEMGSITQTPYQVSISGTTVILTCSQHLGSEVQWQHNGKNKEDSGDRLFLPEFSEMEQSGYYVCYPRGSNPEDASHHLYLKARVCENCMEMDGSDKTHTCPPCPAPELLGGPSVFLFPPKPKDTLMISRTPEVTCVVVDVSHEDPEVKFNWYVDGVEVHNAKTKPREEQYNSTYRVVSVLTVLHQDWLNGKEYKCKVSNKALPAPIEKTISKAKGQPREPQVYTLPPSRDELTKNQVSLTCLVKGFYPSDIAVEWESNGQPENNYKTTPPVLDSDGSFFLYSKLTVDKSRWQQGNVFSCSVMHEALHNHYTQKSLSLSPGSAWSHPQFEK
Macaca fascicularis CD3ε/δ-Fc fusion heterodimer (Macaca fascicularis), sequence (Q95LI8 22-105, stated change not applied, chain 2 of 2): as the sequence (P04234 22-105, stated change not applied, chain 2 of 2) above, with I5V, N15K, I20V, S32T, D33N, I34N, T64A, S74N, V83L counted along it
human CD123 on cells (human), sequence (P26951 19-378): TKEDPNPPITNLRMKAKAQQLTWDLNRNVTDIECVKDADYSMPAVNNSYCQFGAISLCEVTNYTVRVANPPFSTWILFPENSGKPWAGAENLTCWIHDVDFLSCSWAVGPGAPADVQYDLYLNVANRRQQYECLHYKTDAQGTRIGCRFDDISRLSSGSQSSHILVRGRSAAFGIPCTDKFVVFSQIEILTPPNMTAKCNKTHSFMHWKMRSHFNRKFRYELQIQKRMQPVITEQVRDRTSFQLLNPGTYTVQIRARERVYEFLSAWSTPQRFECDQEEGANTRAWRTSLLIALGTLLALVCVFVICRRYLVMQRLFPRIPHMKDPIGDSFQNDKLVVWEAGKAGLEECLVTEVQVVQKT

Broadly, the Kd is the equilibrium constant for the complex coming apart. One may read the koff as the rate constant with which the complex falls apart. A low value points to slow dissociation. In general, kon refers to the rate constant with which the complex forms. Higher therefore signals faster complex formation. Regarding “CODV-Fab 7G3 × I2C (bispecific antibody)”, the Activity EC50 (cytotoxic assay, THP-1 targets + primary human T cells) in [1] came to 0.02 µg/mL. The substance further displayed a Kd in [2] of 0.4 nM. In assay [3], this substance gave a Kd of 0.5 nM, a koff of 0.002 s⁻¹ and a kon of 4e+06 M⁻¹ s⁻¹.
As to FN18 (antibody), the geometric mean of relative fluorescence intensity stood at 1260 rfu in assay [4], 7 rfu in [5], 7 rfu in assay [6] and 1260 rfu in assay [7].
On to I2C Fab (monospecific anti-CD3 Fab), for which the Kd in assay [8] was 0.5 nM. In assay [9], this substance registered a dissociation constant Kd of 0.13 nM, a koff of 0.0013 s⁻¹ and a kon of 1.1e+07 M⁻¹ s⁻¹.
In the case of OKT3 (antibody), the RU of Fab binding at 100 nM in [10] was 3 RU.
Take SP-34 (antibody): in assay [11], the Kd stood at 13 nM, the koff stood at 0.0028 s⁻¹ and the kon came out at 220000 M⁻¹ s⁻¹. In assay [12], the Kd worked out at 2.7 nM, the off-rate constant (koff) was 0.003 s⁻¹ and the on-rate constant (kon) is 1.1e+06 M⁻¹ s⁻¹. Also, the ratio KD(cy)/KD(hu) in [13] is 5.
